Reference: paper PMC6908968 (Cell, 2019)

T1: thermolysin-cleaved EBOV GP on Jurkat-GP cells (cleaved GP) (Zaire ebolavirus, Makona (GP1 core …, strain))
T1 chain 1: not shown
T1 chain 2: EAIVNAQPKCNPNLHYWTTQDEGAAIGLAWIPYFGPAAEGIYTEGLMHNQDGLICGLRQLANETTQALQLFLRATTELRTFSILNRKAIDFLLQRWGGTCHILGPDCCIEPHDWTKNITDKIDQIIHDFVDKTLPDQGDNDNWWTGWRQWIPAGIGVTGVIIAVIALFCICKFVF

B1: 5.6.c3054 (antibody, V domains shown)
VH: QVTLRESGPALVKPTQTLTLTCTFSGFSLSTSGMCVSWIRQPPGKALEWLALIDWNDGKYYTTSLKTRLTISKDTSKNQVVLTMTNMDPVDTATYYCARIFTSSDWFYDAFDLWGQGAMVTVSS
VL: QIVMTQSPATLSVSPGERATLSCRASQSVNNNLAWYQQKPGQAPRLLISGASTRATGIPARFSGSGFGTEFTLTISSLQSEDFAVYYCQQYNTWPPLTFGPGTRVDIK
B2: 5.6.c3021 (antibody, V domains shown)
VH: QLHLQESGPGLVKPSETLSLTCTVSGGSINHDYYWGWIRQPPGKGLEWIGTIYYSGNSYYNPSLKSRVTISVDTSKNQFSLKLSSVTAADTAVYYCARSEEDSVFGVLKGLAFDIWGQGTMVTVSS
VL: QSVLTQPPSVSGAPGQRVTISCTGSSSNIGAGYDVHWYQQPPGRAPKLLIYGNSNRASGVPDRFSGSKSGTSASLAITGLQAEDEADYYCQSYDSSLSGSVFGGGTKLTVL
B3: 5.6.c2972 (antibody, V domains shown)
VH: QVQLQESGPGLVKPSQTLSLTCAVSGGSIRSDDNYWSWIRQPPGKGLEWIGYIYHRGSTYYNPSLKNRVKISVDTSKNQFSLKLSSVTAADTAVYYCARDRIQVVPDGIVHYYYGMDVWGQGTTVTVSS
VL: QSVLTQPPSVSAAPGQKVTISCSGSSSNIGNNYVSWYQQLPGTAPKLLIYDNNKRPSGIPDRFSGSKSGTSATLGITGLQTGDEADYYCGTWDNNLSAWVFGGGTKLTVL
B4: 5.6.c2995 (antibody, V domains shown)
VH: QVQLVESGGGVVQPGRSLRLSCAASGFSFSTYGMYWVRQAPGKGLEWVGVIWYDGSEKYHADFVKGRFTMSRDNSKNTLYLQMNSLRVEDTAVYYCARDLRPSTNSWYGYYYNAMDVWGQGTTVTVSS
VL: QSVLTQPPSVSAAPGQRVTISCSGNSSNIGNNFVSWYQQLPGTAPKLLIYDNNSRPSGIPDRFSGSKSGTSATLGISGLQTGDEADYYCGSWDGSLSLWVFGGGTKLTVL
B5: 5.6.c3168 (antibody, V domains shown)
VH: EVQLVESGGGLVQPGGSLRLSCAASGFTLSNYDMNWVRQAPGKRLEWVSYISSSGSTTYYVDSVKGRFTISRDNAKNSLYLQMNSLRAEDTAVYYCARGHNNWFLYFDSWGQGTLVTVSS
VL: EILMTQSPATLSVSPGERATLSCRASQSVSSNLAWYQQVPGQAPRLLISDASTRATGIPARFSGSGSGTEFTLTINSLQSEDFAVYYCQQYNDWPGTFGQGTKLEIK
B6: 5.6.c3133 (antibody, V domains shown)
VH: QVQLVQSGAEVKKPGSSVKVSCKTSGGTLSTYPFSWVRQAPGQGLEWMGGIIPFFGTTNYAQKFQGRLTMTADKSTNTVYMELGSLRSEDTAVYYCAREHGDDIYYYFAMDVWGQGTTVTVSS
VL: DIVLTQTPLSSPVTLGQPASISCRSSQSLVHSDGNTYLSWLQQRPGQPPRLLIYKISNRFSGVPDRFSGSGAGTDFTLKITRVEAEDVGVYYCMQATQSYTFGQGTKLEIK
B7: 5.6.c3083 (antibody, V domains shown)
VH: QVQLVQSGVEVKKPGASVKLSCKASGYTFTTYGISWVRQAPGQGLEWMGWISAYDDNANYGQQFQGRVTMTTDTSTSTAYMELRSLRSDDTAVYFCARCGGEFIWGWLDPWGQGTLVTVSS
VL: QSALTQPASVSGSPGQSITISCTGTSSDIGGYNYVSWYQQHPGLAPKLMIYDVSYRPSGVSNRFSGSKSGNTASLTISGLQAEDEADYYCSSYTSSGTLVFGGGTKLTVL
B8: 5.6.c2998 (antibody, V domains shown)
VH: EVQLVESGGGVVQPGGSLRLSCAASGFTFDDYAMHWVRQAPGKGLEWVSIITGDGGSRNYADSVKGRFTISRDNNKNSLYLQMNSLRSEDTALYYCAKEGGPDSSTFYYYGMDVWGQGTTVTVSS
VL: DIQMTQSPSSVSASVGDRVTITCRASQDVSSWLAWYRQKPGRAPELLIYAASSLQSGVPSRFSGSGSGTDFTLTISSLQPEDFASYYCLQANSIPWTFGQGTKVEIK
B9: 5.6.c3023 (antibody, V domains shown)
VH: QVQLVESGGGVVQPGRSLRLSCAASGFTFRTYGLHWVRQAPGKGLEWVAFISNDGSSKYNVDSVKGRFTISRDNPKNTLYLQMNSLRTEDTAVYYCAKDTISVAIYGHFDTWGQGTLVTVSS
VL: DVVMTQSPLSLPVTLGQPASISCRSSQSLVKSDGNTYLNWFQQRPGQSPRRLIYKVSTRDTGVPDRFSGSGSGTDFTLKISRVEAEDVAVYYCMQATHWPITFGGGTTVEIK
B10: 5.6.c3053 (antibody, V domains shown)
VH: QVQLVESGGGLVQPGRSLRLSCAASGFTFTNYGMQWVRQGPGKGLEWVALIWYDGYSKYYVDSVKGRFTISRDNSKNTLYLEMNSLRAEDTAVYYCARGNGYSSGWLDNWGQGTLVTVSS
VL: DIQMTQSPSTLSASVGDRVTITCRASQSIDNWLAWYQQKPGKAPKVLIYKASSLESGVPSRFSGSASGTEFTLTISSLQPDDFATYYCQHYNSYSGTFGQGTKVEIK
B11: 5.6.c3057 (antibody, V domains shown)
VH: QVQLVESGGGVVQSGRSLRLSCAASGFTLSSYGMHWVRQAPGKGLEWVATVSFDGNNEYYADSVKGRFTISRDKSKNTLYLQMNSLRPEDTAMYYCAKEPLPARGDFWSGHYSPPSYYYYGMDVWGQGTTVTVSS
VL: QTVVTQEPSFSVSPGGTVTLTCGLRSGSVSTNYYPSWYQQTPGQPPRTLIYNTNTRSFGVPDRFSGSILGNRAALTITGAQADDESDYYCLLYMDSGIWVFGGGTKLTVL
B12: 5.6.c3113 (antibody, V domains shown)
VH: EVQMVESGGGLAQPGGSLRLSCAASGFTFSSYEMSWVRQAPGKGLEWVSYISTSGNTIYYADSVKGRFTISRDNAKNSLYLQMNNLRAEDTAFYYCAANHGDNLFWYFDLWGRGTLVTVSS
VL: DIQLIQSPSFLSASVGDRVTITCRASQGISSYLAWYQQKLGKAPKLLMYAASTLQSGVPSRFSGSGSGTEFTLTISSLQPEDFATYYCQQLNGYPPTFGQGTKLEIK
B13: 5.6.c3151 (antibody, V domains shown)
VH: EVQLVESGGGVVQPGGSLRLSCAASGFDFDDYPMNWVRQAPGKGLELVFLISGDGGSTYSADSVKGRFTISRDNSKNSLYLQMNSLRTEDTALYYCAKDAVDNSGLYYYGMDVWGQGTTVIVSS
VL: DIQMTQSPSSVSASVGDRVTINCRASQGISGWLAWYQQKPGKAPKLLIYAASSLQSGVPSRFSGSGSGTDFTLAISSLQPEDLATYYCQQTHSFPFTFGPGTKVGIK
B14: 5.6.c3166 (antibody, V domains shown)
VH: EVHLVESGGGLVQPGGSLRLSCAASGFSFNTHWMNWVRQAPGKGLEWVANIKQNGGEKYYVDSVKGRFTISRDNAKNTLFLQMNSLRGDDTAVYYCARGPPPAAPEDLFYNYTMDVWGQGTTVTVSS
VL: EIVMTQSPATLSVSPGERATLSCRASQSVINHLAWYQQKPGQTPRLLIYGASTRATGIPARFSGSGSGTEFTLTISSLQSEDFAVYFCQQYNTWPPFTFGGGTKVEIK
B15: 5.6.c3014 (antibody, V domains shown)
VH: QVQLVESGGGVVQPGRSLRLSCAASGFSFNSYGMHWVRQAPGKGLEWVAIIWYDGSDKYYADSVKGRFTISRDNSKNTLSLQMNSLRVEDSAVYYCARDPGHPSDLYYYYGMDVWGQGTTVTVSS
VL: DIQMTQSPSSVSASVGDRVTITCRASQDISYWLAWYQQKPGKAPKLLIYSASSLQSGVPSRFSGSGSGTDFTLTISSLQPEDFATYYCQQTHTFPITFGQGTRLEIK
B16: 5.6.c3013 (antibody, V domains shown)
VH: QVQLVQSGAEVKKPGASVKVSCKASGYTFTKYGISWMRQAPGQGLEWMGWISAYNGDTNYAQKLHGRLTMTTDTSTSTVYMELRSLRSDDTAIYYCARDLGELSSLKFYGMDVWGQGTTVTVSS
VL: DIQLTQSPSFLSASVGDRVTITCRASQGISSFLAWYQQKPGKAPKILVYGASTLQSGVPSRFSGSGSGTEFTLTISSLQPEDFATYYCQQVNTFPFTFGPGTQVDFK
B17: 5.6.c3067 (antibody, V domains shown)
VH: EVQLVESGGGLVQPGGSLRLSCAASGFTFSNYWMTWVRQAPGKGLEWVGNIKEDGSEKYYVDSVKGRFTISRDNAKNSLYLQLNNLRAEDTAVYYCAREPAGFVFEGGFDYWGQGTLVTVSS
VL: DIQMTQSPSSVSASVGDRVTILCRASQYITTWLAWYQQKPGRAPKLLISAASTLQSGVPSRFSGSGSGTDFTLTISSLQPEDFATYYCQQAHSLPWTFGQGTKVEIK
B18: 5.6.c3027 (antibody, V domains shown)
VH: QVQLVESGGGVVQPGRSLRLSCAASGFSFNNYGMHWVRQAPGKGLEWVAHIYFDGNYKFYIDSVKGRFTISRDNAKYTLYLQMNSLRVEDTAVYYCARDVRDGDDIFSGYHYGMDVWGQGTTVTVSS
VL: DIQMTQSPSSVSASVGDRVSITCRASQGFTNWLAWYQQKPGKAPKLVIYAASSLQSGVPSRFSGSGSGTNFTLTISSLQPEDFATYYCQQANSFPLTFGGGTKVDVK
B19: 5.6.c3108 (antibody, V domains shown)
VH: QVQLVESGGGVVQPGRSLRLSCAASGFTFSNSDMHWVRQAPGKGLEWVALIYFDGSSQYYVDSVKGRFTISRDNSKNTLYLQMNSLRVEDTAVYYCAREAAIVGAIFYDGMDVWGQGTTVTVSS
VL: EIVMTQSPATLSVSPGEGATLSCRASQNVGFNVAWYQQRPGQAPRLLIYGASTRATGVPARFSGSGSGTEFTLTISSLQSEDFAVYYCQQCNNWPPLTFGGGTKVEIK

Legend:
[1] = molecular target: T1, thermolysin-cleaved EBOV GP on …
[2] = molecular target: EBOV GP ectodomain residues 1-636 (GPec) (Zaire ebolavirus, strain  …, UniProt Q05320)

| Binder | binding result [1] | binding result [2] |
| --- | --- | --- |
| B1 | binds | binds |
| B2 | binds | binds |
| B3 | binds | binds |
| B4 | binds | binds |
| B5 | binds | binds |
| B6 | binds | binds |
| B7 | binds | binds |
| B8 | binds | binds |
| B9 | binds | binds |
| B10 | binds | binds |
| B11 | binds | binds |
| B12 | binds | binds |
| B13 | binds | binds |
| B14 | binds | binds |
| B15 | binds | binds |
| B16 | binds | binds |
| B17 | binds | binds |
| B18 | binds | binds |
| B19 | binds | binds |
